From doi:10.1101/2020.09.10.288878

Target: taxol-stabilized microtubules polymerised from porcine brain tubulin (porcine) (UniProt P02550)
Test: co-sedimentation

Row | Substance | decrease in the pellet fraction against MBP-MTB-WT
1 | MBP-MTB-ΔSAH (MBP-tagged Sli15 microtubule binding domain with the SAH region deleted) (domain or fragment) | 20%
2 | MBP-MTB-12Q (MBP-tagged Sli15 microtubule binding domain, twelve basic SAH residues to glutamine) (domain or fragment) | 20%
